Columns and labels:
Format in all cases: binding
CEL-BSA = CEL-BSA (Bos taurus, UniProt P02769); assay: Specificity of SJ-5 by competitive ELISA (Example 7); conditions: GAL13-BSA or Glycer-AGEs-BSA immobilized, POD-labeled SJ-5 0.4 μg/mL
Method: (§1) GAL13-BSA or Glycer-AGEs-BSA prepared into 1 μg/mL with PBS (pH 7.4) was added as an immobilized antigen at 100 μL/well to a 96-well microtiter plate (NUNC) and left at 25° C. for 1 hour. The antigen was immobilized overnight at 4° C. The plate was washed three times with PBS containing 0.05% (v/v) Tween 20 (PBS-T) and then blocked with a carbonate buffer solution (pH 9.5) containing 0.5% (w/v) gelatin for 1 hour. A POD-labeled SJ-5 antibody (0.4 μg/mL) was prepared under the same conditions as in Example 6. In order to confirm specificity, BSA containing AGEs derived from glucose (Glu-AGEs-BSA), BSA containing AGEs derived from glycolaldehyde (Glycol-AGEs-BSA), BSA containing AGEs derived from methylglyoxal (MGO-AGEs-BSA), BSA containing AGEs derived from glyoxal (GO-AGEs-BSA), BSA containing N^ε-carboxymethyllysine (CML-BSA), BSA containing N^ε-carboxyethyllysine (CEL-BSA), and bovine serum albumin (BSA) were added at 50 μL/well to the antigen-immobilized plate in the same way as above, and the POD-labeled SJ-5 antibody (50 μL) was further added thereto, and stirred with a plate mixer, and then left standing at room temperature for 1 hour. After washing, an o-phenylenediamine solution (100 μL) prepared into 0.5 mg/mL with a 0.1 M citrate-phosphate buffer solution (pH 5.0) containing 0.02% (w/v) hydrogen peroxide was added to each well and left standing at 25° C. for 10 minutes. Then, color reaction was terminated by the addition of a 1 M sulfuric acid solution (50 μL) to each well. Then, absorbance at 490 nm was measured with a microplate reader.

CML-BSA = CML-BSA (Bos taurus, UniProt P02769); assay: as above; conditions: GAL13-BSA or Glycer-AGEs-BSA immobilized, POD-labeled SJ-5 0.4 μg/mL
Sequence of CML-BSA (P02769 25-607): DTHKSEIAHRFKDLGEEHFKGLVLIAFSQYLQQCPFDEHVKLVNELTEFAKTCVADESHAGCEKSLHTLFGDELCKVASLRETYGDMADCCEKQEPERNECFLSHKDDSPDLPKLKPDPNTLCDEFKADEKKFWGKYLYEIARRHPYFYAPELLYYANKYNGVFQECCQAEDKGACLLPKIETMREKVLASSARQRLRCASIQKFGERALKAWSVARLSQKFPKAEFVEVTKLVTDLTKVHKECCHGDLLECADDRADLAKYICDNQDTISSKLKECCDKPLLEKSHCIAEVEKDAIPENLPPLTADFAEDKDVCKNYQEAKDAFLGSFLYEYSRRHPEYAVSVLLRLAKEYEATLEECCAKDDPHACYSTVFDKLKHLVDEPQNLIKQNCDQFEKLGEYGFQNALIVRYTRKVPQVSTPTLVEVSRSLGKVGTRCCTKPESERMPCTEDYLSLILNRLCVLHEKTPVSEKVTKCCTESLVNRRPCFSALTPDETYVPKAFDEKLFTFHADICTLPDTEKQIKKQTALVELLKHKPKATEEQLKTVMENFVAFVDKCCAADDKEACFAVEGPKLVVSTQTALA
Method: as §1

GO-AGEs-BSA = GO-AGEs-BSA (Bos taurus, UniProt P02769); assay: as above; conditions: GAL13-BSA or Glycer-AGEs-BSA immobilized, POD-labeled SJ-5 0.4 μg/mL
Sequence of GO-AGEs-BSA (P02769 25-607): as above
Method: as §1

Glu-AGEs-BSA = Glu-AGEs-BSA (Bos taurus, UniProt P02769); assay: as above; conditions: GAL13-BSA or Glycer-AGEs-BSA immobilized, POD-labeled SJ-5 0.4 μg/mL
Sequence of Glu-AGEs-BSA (P02769 25-607): as above
Method: as §1

Glycer-AGEs-BSA [1] = biological target: T1, Glycer-AGEs-BSA (Bos taurus, UniProt P02769); assay: as above; conditions: GAL13-BSA or Glycer-AGEs-BSA immobilized, POD-labeled SJ-5 0.4 μg/mL
T1 sequence (P02769 25-607): as above
Method: as §1

Glycol-AGEs-BSA = Glycol-AGEs-BSA (Bos taurus, UniProt P02769); assay: as above; conditions: GAL13-BSA or Glycer-AGEs-BSA immobilized, POD-labeled SJ-5 0.4 μg/mL
Sequence of Glycol-AGEs-BSA (P02769 25-607): as above
Method: as §1

MGO-AGEs-BSA = MGO-AGEs-BSA (Bos taurus, UniProt P02769); assay: as above; conditions: GAL13-BSA or Glycer-AGEs-BSA immobilized, POD-labeled SJ-5 0.4 μg/mL
Sequence of MGO-AGEs-BSA (P02769 25-607): as above
Method: as §1

Glycer-AGEs-BSA [2] = biological target: T1, Glycer-AGEs-BSA; assay: Dissociation constant measurement, Biacore T200 (Example 8); conditions: Biacore T200, sensor chip CM5; ligand Glycer-AGEs-BSA; antibody 0 to 400 nM
Method: The dissociation constant (Kd value) of the monoclonal antibody SJ-5 was measured by the following approach: BSA containing AGEs derived from glyceraldehyde (Glycer-AGEs-BSA) was diluted with a 10 mM sodium acetate solution (pH 4.0) to prepare a ligand solution with a final concentration of 100 μg/mL. Biacore T200 (GE Healthcare Japan Corp.) was used for the immobilization of the ligand and the calculation of the KD value. The ligand solution was immobilized onto sensor chip CM5 (GE Healthcare Japan Corp.) using an amine coupling kit (GE Healthcare Japan Corp.). Subsequently, antibody dilution solutions containing the monoclonal antibody diluted into concentrations from 0 to 400 nM were prepared, and the Kd value was calculated.

[3] = Reactivity of SJ-5 with GLAP by competitive ELISA (Example 13); conditions: immobilized Glycer-AGEs-BSA
Method: (§2) A solution of BSA containing AGEs derived from glyceraldehyde (stock solution: 10 mg/mL PBS solution) prepared into 1 μg/mL in a coating solution was added at 100 μL/well to a 96-well microtiter plate (COSTAR) and incubated overnight at 4° C.
(§3) Each well after the immobilization treatment was washed three times with a washing solution (300 μL), and a blocking solution (200 μL) was added thereto and left at room temperature for 1 hour.
GAL13 (prepared in Example 2), GLAP (prepared in Example 12), and Z-Lys-OH (Tokyo Chemical Industry Co., Ltd.) were each dissolved in a phosphate buffer solution (0.2 M, pH 7.4) to prepare a 20 mg/mL solution. Sample solutions of 2-fold dilution series from 0.0063 to 2 mg/mL (6 points) were further prepared by dilution with a diluting solution. A POD-labeled novel monoclonal antibody (SJ-5) solution was diluted 16,000-fold with a diluting solution containing BSA (1 mg/mL, FUJIFILM Wako Pure Chemical Corp.) to prepare a POD-labeled SJ-5 antibody dilution solution. […]
(§4) Absorbance was measured at a dominant wavelength of 450 nm and a sub-wavelength of 650 nm with a microplate reader (Cytation 5, BioTek Instrument Inc.), and the absorbance at the sub-wavelength was subtracted from the absorbance at the dominant wavelength.

[4] = Reactivity of SJ-5 with Lys-hydroxy-triosidine by competitive ELISA (Example 18); conditions: immobilized Glycer-AGEs-BSA
Method: as §2, §3
GAL691 (prepared in Example 16) and Lys-hydroxy-triosidine (prepared in Example 17) were each dissolved in a phosphate buffer solution (0.2 M, pH 7.4) to prepare a 10 mg/mL solution. Sample solutions of 2-fold dilution series from 0.625 to 10 mg/ml (5 points) were further prepared by dilution with a diluting solution. Dilution solutions were also prepared from a blank solution containing no sample in the same way as above. […]
as §4, with “wavelength. Change in the absorbance of GAL691 and Lys-hydroxy-triosidine was indicated as relative values to the absorbance of the blank solution.” for “wavelength.”

Sequence of CEL-BSA (P02769 25-607): as above

specificity: reactivity with CEL-BSA (CEL-BSA): negative
specificity: reactivity with CML-BSA (CML-BSA): negative
specificity: reactivity with GO-AGEs-BSA (GO-AGEs-BSA): negative
specificity: reactivity with Glu-AGEs-BSA (Glu-AGEs-BSA): negative
specificity: reactivity with Glycer-AGEs-BSA (Glycer-AGEs-BSA [1]): positive
specificity: reactivity with Glycol-AGEs-BSA (Glycol-AGEs-BSA): positive
specificity: reactivity with MGO-AGEs-BSA (MGO-AGEs-BSA): negative
Kd (Glycer-AGEs-BSA [2]): 57.4 nM
B1: SJ-5: mouse monoclonal antibody raised against GAL13-MSA; heavy-chain variable region SEQ ID NO 4, light-chain variable region SEQ ID NO 8 (antibody, listed as Mus musculus, V domains shown)
VH: EVMLVESGGRLVKPGGSLKLSCAASGFTFSSYGMSWVRQTPEKRLEWVATISGGGSYTYYPDSVKGRFTISRDNVKNNLYLQMSSLRSEDTALYYCARRGAYGDYGWFAYWGQGTLVTVSA
VL: DIVLTQSPATLSVTPGDSVSLSCRASQSINNNLHWYQQKSHESPRLLIKCASQSISGIPSRFSGSGSGTDFTLSINSVETEDFGMYFCQQSNSWPLTFGAGTKLELK
recognition of GLAP [3]: does not recognize
recognition of Lys-hydroxy-triosidine [4]: does not recognize

Source: patent US12391751B2, “Antibody against advanced glycation end products and use thereof” (Bloom Technology Corporation, priority 2018, dated 2025)
